This data set can be described thus: soluble on expression in E. coli; label from the status in PepcDB or PDB records.
Consider “QAVGGKIADDAQKVAGLYAEKKRTNWTQANGVAGKISHKIQSLLGMRDAGSRVQAFVAFMADGKGRPGATMLDLGDGWMRATRVIKGEAALIDFQCDSDGKVVDARHPGRFPVLPQGNEREAFKTVLQELKFRGAETLSKVPVYYVNRNTRGYVIPTHGYVVAGHPNRGRKSGAVLYGVGGDPKRGPVALDEKLLGHLVGRSDSKTSSKLSAPVKAAISALAGASFATREDFYDAYCAVRGDAVDPLERHNEISSIYRLLPLSTMEMWPKKADDYRVARPAAPERDLRAFENLPKDIGRKAQLKKVSNVDSIDLLEAKRQFTLHQLYQDEMLGRNGTGVPSADFKPKVDAQRRDQLVASTPKFQRLPPHTTDKVGNCNTGASSLLQRAVDTYTEKNNLPPEKVTAASIFGIGSSHRLAIWDPLDGSSSNKSSKDR”, for which the “soluble on expression in E. coli” value is recorded as “not soluble”.
Regarding “MGSDKIHHHHHHMRYVKLHSEYFPEFFNRLKEVGRVYGPVRHNSTYRFEEVNSIDELSLDYTRTILPPKKFFIRPRDAMFKIQKNEVTEVDGDGKFVLFGVHSCDIHGIKILDKVYLSNPPDPYYERRRKNAFIVGISCMPDEYCFCKSLGTDFAMDGFDIFLHELPDGWLVRVGSVKGHEFVWENQDIFDDVTEEDLRNFKEFEEKRAKAFKKSLNKEGLADILDLAFTSKVWKKYAEKCLGCGNCTIVCPTCRCYEVCDTWVRAYEALRMRRYDSCFMPTHGLVAGGHNFRPTRLDRFRHRYYCKNYFDPEAGFNCVGCGRCDEFCPARIEHVKVLDEVREGLI”, the “soluble on expression in E. coli” value is given as “not soluble”.
For the sequence “MEDLEEDVRFIVDETLDFGGLSPSDSREEEDITVLVTPEKPLRRGLSHRSDPNAVAPAPQGVRLSLGPLSPEKLEEILDEANRLAAQLEQCALQDRESAGEGLGPRRVKPSPRRETFVLKDSPVRDLLPTVNSLTRSTPSPSSLTPRLRSNDRKGSVRALRATSGKRPSNMKRESPTCNLFPASKSPASSPLTRSTPPVRGRAGPSGRAAASPPTPIRSVLAPQPSTSNSQRLPRPQGAAAKSSSQLPIPSAIPRPASRMPLTSRSVPPGRGALPPDSLSTRKGLPRPSTAGHRVRESGHKVPVSQRLNLPVMGATRSNLQPPRKVAVPGPTR”, the “soluble on expression in E. coli” value is listed as “soluble”.
Regarding “MSNEKFNNVPKPAGNGPHTPEDHAIKGELTFEDKVVQKIIGLALENVDGLLTVDGGFFSNIAEKLVNTDNVTAGIDTEVGKKQVAVDMDIVVEYGKDIQDIYEKMKELISREVKKMTHLDVIEVNVNVVDIKSKEEYEEDSETVQDKVTGAAKSTGEFASEQTEKAKKAVNKGTEQVKENMEPRVELEHHHHHH”, the “soluble on expression in E. coli” value is “soluble”.
Turning to “MTVITEPARQTPVIHNTDVLVVGSGPGGLAAALAAARAGVDVCLVERFGCFGGNITVVGVEGFAWYRHEATVEAGGIGREFEDRAREMGAAVPESQSLSYEIDSEGFKLVADRLVEEAGVHGMLHRQFVAPVMEGDRVAGIIVESKAGREAILARVVIDATGDADVAHRAGAPTLKTPAEHMQAASVMFHLAGVDKAAFMAEVRRDPQTYKDWSTGEWTVETDGKEDDMFSPFLKKPFAKAIEEGVIPPHLNTIAGTWGAMHDTGELTYMNLVHLAGVDGTDPDSLTQGEIEGRRQAMLAIEALRRFMPGCGGVRLRNFGMTIGIRDTRKIRAAYDMTETDVRQQGRFDDSIGIYPEFIDGYGVLIIPTTGRYMQIPYRAVLPGKVKGLLVAGRAIGGDRIAHAATRNMACCAVAGQGAGVAAALAVKTGCDVAQVDMAGVQAELLRQGVRIALEHHHHHH”, the “soluble on expression in E. coli” value is on record as “not soluble”.
Then “MGSSHHHHHHSSGLVPRGSHMRIGMVCPYSFDVPGGVQSHVLQLAEVLRDAGHEVSVLAPASPHVKLPDYVVSGGKAVPIPYNGSVARLRFGPATHRKVKKWIAEGDFDVLHIHEPNAPSLSMLALQAAEGPIVATFHTSTTKSLTLSVFQGILRPYHEKIIGRIAVSDLARRWQMEALGSDAVEIPNGVDVASFADAPLLDGYPREGRTVLFLGRYDEPRKGMAVLLAALPKLVARFPDVEILIVGRGDEDELREQAGDLAGHLRFLGQVDDATKASAMRSADVYCAPHLGGESFGIVLVEAMAAGTAVVASDLDAFRRVLADGDAGRLVPVDDADGMAAALIGILEDDQLRAGYVARASERVHRYDWSVVSAQIMRVYETVSGAGIKVQVSGAANRDETAGESV”, with “soluble”; and “MSLSEKAKKPQKLKARLPRGFVDRSAADIHATNEMVDKIRRVYELYGFDPIETPLFEYTDALGKFLPDSDRPNEGVFSLQDDDDQWMSLRYDLTAPLARHVAENFNEIQLPYRTYRAGYVFRNEKPGPGRFRQFMQFDADTVGAAGVQADAEMCMMMADTMEALGIARGDYVIRVNNRKVLDGVMEAIGLGGEDNAGRRLNVLRAIDKLDKFGPEGVKLLLGPGRKDESGDFTKGAGLGDEQIEKVLFFVGIKDYAASADDLAKLVAGTSKGEEGVDELNTIGALVSGAGYDATRIKIDPSVVRGLEYYTGPVYEAELTFDVTNEKGEKVVFGSVGGGGRYDGLVSRFMGQPVPATGFSIGVSRLMTALKNLGKLGQVKPLAPVLITVMDGDVESMGRYQRFTQALRAEGIRAEMYQGNWKKFGNQLKYADRLGSPIAIIQGGDERAEGVVQIKDLIEGKRLSGEIEDNASWREARVAQVSEGHHHHHH”, with “soluble”.
Regarding “MHAEKDLITKETTQPVPPPAAVVTHQPITKRYDPPISISPPPQRNNYSHVKVTVDSDTSPRQQAFIDDIVAKGGKLAVVTYDRGGQNTKELTVHKGEYLEVIFDERNWWECKNMHQRVGYVPHTILSMVPFEQQQYASPNHHNNSSSTGGYNNGHHQGPGMLPEDAPSYVKERQGKRGEFRYF”, the “soluble on expression in E. coli” value is reported as “not soluble”.
For “MAHHHHHHMNASGATASEGKNPPRDARTVSFHPESTFHEQHNAASQRFSHTSEPGWESRESNSGYAAQDGGDTANEGIRRSYYKRLYRFYRKYNPQKLCNVEKLLRECRGEEEQLFAILVGKYGPEPEEESSMLSGDCVFSSAGDSVMHYSGKRCQFPKKVKPEEGNTDCETPYWAGASSLIGDRDLLSLLQNLETPNVELQKCYMGVFAEHPTDCWNGMAYITRAEGIAPANTKFLGHTWVGTLGSGKVLVHEGKKFHRTTLYCTEECQKRGNHERWRLSVYRGEVSYLILLRTVWDPVVVPEPLPLNRSNLSEREVHSSLDGFPTRLSSMSSADSGGSGSRQPIQPPQPQQHTVTPAFVQFTKLLEELESRIIERLEGLERRMSRLENM”, the “soluble on expression in E. coli” value is listed as “not soluble”.
In the case of “MSLKGTDRIKVLHMSDFHIDPRYATGSEGNCTSGLCCRRGNPVESLNSNYTVSVPAPRFGYFLCDTPWALGAAAVEAIPVLTGTDEDDAFNMTIFTGDMVSHDPYYELSRDYIEYTETALYDLWKQTLNPTSPLYAAIGNHDSYQQAFDAPSSLPGKLRKQSSWNYEHLAGLWESEGWIDGEVAQKVKTHYGAYSIQHATNLKIITINTDLWYRANIFAYINSTHPDNFGFLKFLAEELQEAEDCNSRAYIVGHVLSGYDGTNPLPGPTDIFYQIIDRYSHVIAGLFWGHTHEDQHMIYYANNGTKMSAETAQNVGWIGPSITPLTDLNSGFRLYEVDAETWDILDAHTWYSNVSTYSSLDGQLEVGPSYVYEYNTRQAYGGNISWPDNAPLNATWWHLVSQDMENDGGALVELYNAHQGKMSTLSPNCTSAECIEAKVCYLRSGSGTLALDNCKTGYGSVQEGHHHHHH”, the “soluble on expression in E. coli” value was “not soluble”.
The same measure for “MRSMTDVRRYWISLLRKICEMPLELCASDRLKKSMPVEGKKSEERRKFTHLELLGRIFCGISPFLELNRESPSTDPEERKIATRLSEFAVKSLDVATNPNCKDYMNFKEGRQPLVDAAFLVEAILRAPKVLWEDLDVSTKKRLIRELKATRKIEPYFSNWLLFSAMIETFFFFAGEEWDSTKVDLILKNVESWYKGDGAYGDGPFFRWDYYNSFVIYPMTIDVLRIISEEKTEWKELYVKVLRRAQRYAVVLERMISPEGTFPIIGRSITYRTAVFHLLSQLSLLHLLPASLSPAQVRCALTAVLRRIFENPSTFDENGWLKIGVIGSQPSLGEEYITTGSLYLCTTVFLPLGLPTSDPFWRDPCKKWTNKKVWEGEDVAPDRALEDLEHHHHHH”: “soluble”; for “MSLHNVVISGTGLFTPANSISNEELVESFNTYVHQFNSDNAAAIERGEVQALTESNAAFIEKASGIKSRFVMDKDGILDPQRMAPRLPERSNDEWSVLCQMAVAAAEQALQRAGKTAADIDGVIVACSNLQRAYPAIAIEVQAALGIQGFGFDMNVACSSATFGIQAACNSVQLGQARAILMVNPEVCTGHLNFRDRDSHFIFGDAATAVVIERADLATSEHQFDIVSTKLLTQFSNNIRNNFGFLNRAAEEGIGARDKLFVQEGRKVFRDVCPMVAELIAAHLEENQLNVSDVKRFWLHQANLSMNHLIVKKLLCREASVEEAPVILDTYANTSSAGSVIAFHKYQDDLASGSLAVLSSFGAGYSIGSVLLRKREGHHHHHH”: “soluble”.

The values are drawn from the DeepSol protein solubility set.
